{"source": "patent US7098025B1", "about": "“Human peroxisome proliferator activated receptor gamma (pparγ) gene regulatory sequences and uses therefor” (Ligand Pharmaceuticals Incorporated, priority 1997, dated 2006)", "molecules": {"B1": {"name": "mRXRα, in vitro translated protein (receptor, mouse, UniProt P28700 1-467, looked up)", "chain": "MDTKHFLPLDFSTQVNSSSLNSPTGRGSMAVPSLHPSLGPGIGSPLGSPGQLHSPISTLSSPINGMGPPFSVISSPMGPHSMSVPTTPTLGFGTGSPQLNSPMNPVSSTEDIKPPLGLNGVLKVPAHPSGNMASFTKHICAICGDRSSGKHYGVYSCEGCKGFFKRTVRKDLTYTCRDNKDCLIDKRQRNRCQYCRYQKCLAMGMKREAVQEERQRGKDRNENEVESTSSANEDMPVEKILEAELAVEPKTETYVEANMGLNPSSPNDPVTNICQAADKQLFTLVEWAKRIPHFSELPLDDQVILLRAGWNELLIASFSHRSIAVKDGILLATGLHVHRNSAHSAGVGAIFDRVLTELVSKMRDMQMDKTELGCLRAIVLFNPDSKGLSNPAEVEALREKVYASLEAYCKHKYPEQPGRFAKLLLRLPALRSIGLKCLEHLFFFKLIGDTPIDTFLMEMLEAPHQAT", "notes": "also called mouse retinoid X receptor alpha"}, "B2": {"name": "ADD-1-403: truncated superactive form of ADD-1 lacking the membrane anchoring domain, equivalent to the proteolytically activated protein (protein, UniProt P56720 1-403, looked up, fragment)", "chain": "MDELPFGEAALEQALAEVCEMDAALLTDIEDMLQLINNQDSDFPGLFDAPYAGGETGDTGPSSPGASSPESFSSPASLGSSLEAFLGGPKVTPAPLSPPPSAPTAVKMYPSVPPFSPGPGIKEEPVPLTILQPPAPQPSPGTLLPPSFPPPPVQLSPAPVLGYSSLPSGFSGTLPGNTQQTPSSLPLGSTPGISPTPLHTQVQSSAAQQPPPASAAPRMSTVASQIQQVPVVLQPHFIKADSLLLTAVKTDTGATMKTAGINTLAPGTAVQAGPLQTLVSGGTILATVPLVVDTDKLPIHRLAAGGKALGSAQSRGEKRTAHNAIEKRYRSSINDKIVELKDLVVGTEAKLNKSAVLRKAIDYIRFLQHSNQKLKQENLTLRSAHKSKSLKDLVSACGSGGGT"}, "B3": {"name": "PPARgamma3 E-box (LF-102; core printed) (dsDNA)", "DNA 1": "ATTCATGTGACAT", "DNA 2": "ATGTCACATGAAT"}}, "key": {"PPARγ": {"biological_target": "T1, PPARγ (Oryctolagus cuniculus, UniProt O19052)", "T1 construct": "endogenous in cells; host or cells: RK-13 (rabbit kidney, ATCC)", "T1 sequence (O19052 1-475)": "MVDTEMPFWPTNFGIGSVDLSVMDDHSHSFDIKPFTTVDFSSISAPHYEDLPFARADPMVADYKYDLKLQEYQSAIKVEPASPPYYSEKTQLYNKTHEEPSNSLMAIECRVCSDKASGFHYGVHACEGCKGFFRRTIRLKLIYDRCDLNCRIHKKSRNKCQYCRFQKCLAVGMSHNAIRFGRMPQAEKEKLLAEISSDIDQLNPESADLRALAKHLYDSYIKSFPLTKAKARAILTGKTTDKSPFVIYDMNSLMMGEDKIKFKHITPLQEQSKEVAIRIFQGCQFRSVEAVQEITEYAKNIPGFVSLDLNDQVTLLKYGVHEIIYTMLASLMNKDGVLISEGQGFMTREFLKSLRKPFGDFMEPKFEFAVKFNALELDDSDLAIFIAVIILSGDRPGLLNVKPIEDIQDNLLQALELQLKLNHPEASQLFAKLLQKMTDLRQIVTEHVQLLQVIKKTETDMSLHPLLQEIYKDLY", "experiment": "J3-TK-LUC PPRE-driven luciferase reporter in RK-13 cells", "format": "cell-based, rabbit", "method": "Next we wanted to assess whether the above-mentioned changes in PPARγ expression were associated with changes in the capabilities of PPARγ to transactivate. A PPRE-driven luciferase reporter gene, containing three copies of the apo A-II J site (Vu-Dac et al., 1995), ie. J3-TK-LUC, was transfected into rabbit kidney-derived RK-13 cells and half of the cells were maintained in cholesterol-depleted medium whereas the other half was grown in the same medium supplemented with a mixture of cholesterol and 25-hydroxycholesterol.\nSite-directed mutagenesis of the E-box in the PPARγ3 promoter was performed by splicing overlapping ends polymerase chain reaction (Ho, et al., Gene 77:51–59 (1989)), using the oligo pairs LF-106/LF-60 and LF-107/LF-68, to generate the plasmid pGL3γ3p800-E-boxmut. This changed the three bases underlined in the sequence 5′-[…]-3′ to 5′-[…]-3′ (SEQ ID NOS: 41 and 42, respectively. The J3-TK-LUC (Vu-Dac et al., 1995) and ACO-TK-LUC (Osumi et al., Biophys. Res. Commun. 175:866–871 (1991)) luciferase reporter vectors and the expression vectors encoding for ADD-1, a dominant negative form of ADD-1, and SREBP-1a (Tontonoz et al., Mol. Cell. Biol. 13:4753–4759 (1993)); Yokoyama et al., Cell 75:187–197 (1993)) were described before. […]"}, "[1]": {"biological_target": "T2, hPPARγ2, in vitro transcribed/translated protein (human, UniProt P37231 1-505)", "T2 construct": "PPARγ2 isoform, with the additional N-terminal amino acids encoded by exon B; also called human PPARγ2", "T2 sequence (looked up)": "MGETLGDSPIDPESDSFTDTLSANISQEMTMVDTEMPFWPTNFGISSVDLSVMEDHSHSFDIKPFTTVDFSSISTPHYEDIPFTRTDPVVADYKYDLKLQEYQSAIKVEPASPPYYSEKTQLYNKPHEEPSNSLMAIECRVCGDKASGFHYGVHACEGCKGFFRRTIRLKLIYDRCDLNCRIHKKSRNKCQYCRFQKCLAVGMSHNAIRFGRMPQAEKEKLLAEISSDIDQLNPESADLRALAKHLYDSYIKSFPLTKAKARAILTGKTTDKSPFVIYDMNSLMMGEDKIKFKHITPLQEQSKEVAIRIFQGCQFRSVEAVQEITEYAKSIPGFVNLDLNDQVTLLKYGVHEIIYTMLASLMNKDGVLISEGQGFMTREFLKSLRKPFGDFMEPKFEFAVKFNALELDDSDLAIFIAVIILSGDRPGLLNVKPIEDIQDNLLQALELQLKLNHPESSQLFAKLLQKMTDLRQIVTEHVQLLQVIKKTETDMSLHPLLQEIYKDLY", "experiment": "EMSA with in vitro translated proteins on the apoA-II J site PPRE oligonucleotide; heterodimer complex on DNA", "method": "To analyze whether PPARγ could bind to a PPRE, classically composed of direct repeats spaced by one intervening nucleotide (DR-1), EMSA was performed using in vitro transcribed/translated PPARγ2 protein. An oligonucleotide containing a high affinity PPRE, previously identified in the apoA-II promoter J site, was used in EMSA (29).\n7. Electrophoretic Mobility Shift Assays (EMSA) and Oligonucleotide Sequences haPPARγ (39), hPPARγ2, and mRXRα (40) proteins were synthesized in vitro in rabbit reticulocyte lysate (Promega). Molecular weights and quality of the in vitro translated proteins were verified by SDS-PAGE. PPAR (2 μl) and/or RXR (2 μl) were incubated for 15 min on ice in a total volume of 20 μl with 1-ng probe, 2.5 μg of poly(dI-dC) and 1 μg of herring sperm DNA in binding buffer (10 mM Tris-HCl pH 7.9, 40 mMKCl, 10% glycerol, 0.05% Nonidet P-40, and 1 mM dithiothreitol). For competition experiments, increasing amounts (from 10- to 200-fold molar excess) of cold oligonucleotide (AII-J-PPRE, 5'-[…]-3' (41) SEQ ID NO: 24; acyl-CoA oxidase (ACO)-PPRE, 5'-[…]-3' (42) SEQ ID NO: 25; or LPL-PPRE, 5'-[…]-3 (23) SEQ ID NO: 26; were included just before adding T4-PNK end-labeled AII-J-PPRE oligonucleotide. DNA-protein complexes were separated by electrophoresis on a 4% polyacrylamide gel in 0.25×TBE buffer at 4° C. (43)."}, "PPARγ mRNA": {"tested_on": "PPARγ mRNA", "experiment": "RNase protection assay of PPARγ mRNA in retrovirally infected 3T3-L1 cells", "format": "cell-based, mouse", "details": "3T3-L1 preadipocytes and adipocytes; retroviral ectopic expression", "method": "To study the effects of ADD-1 on PPARγ expression in more detail, either an empty retroviral vector pBabe or the same vector encoding for full length ADD-1 or the superactive ADD-1-403 form were introduced into 3T3-L1 cells via retroviral infection. […] Infected cells were then cultured to confluence and consecutively treated with differentiation medium. Total RNA was isolated at confluence (preadipocytes) and at day 6 after confluence (adipocytes) from the cells expressing either the empty pBabe vector or the same vector encoding for ADD-1 or ADD-1-403, a truncated form of ADD-1, equivalent to the proteolytically activated protein, which lacks the membrane anchoring domain. […] The effect of retroviral infection was more pronounced in 3T3-L1 adipocytes relative to preadipocytes.\nControl cells received vehicle only.\nThe absolute mRNA concentration of the differentially spliced PPARγ variants was measured by RNase protection assay exactly as described (Lemberger et al., J. Biol. Chem. 271:1764–1769 (1995)). The full lenght PPARγ2 coding region plus 33 bp of the 5′ UTR was amplified from human adipose tissue RNA by RT-PCR with the primer pair LF-3/LF-36 and was inserted in the inverted orientation (3′ to 5′ in front of the T7 promoter) into the EcoRI site of the expression vector pSG5 (Stratagene, La Jolla, Calif.). […]"}, "ADD-1": {"biological_target": "T3, ADD-1 (UniProt P56720-1 P56720-1:1-1110)", "T3 sequence": "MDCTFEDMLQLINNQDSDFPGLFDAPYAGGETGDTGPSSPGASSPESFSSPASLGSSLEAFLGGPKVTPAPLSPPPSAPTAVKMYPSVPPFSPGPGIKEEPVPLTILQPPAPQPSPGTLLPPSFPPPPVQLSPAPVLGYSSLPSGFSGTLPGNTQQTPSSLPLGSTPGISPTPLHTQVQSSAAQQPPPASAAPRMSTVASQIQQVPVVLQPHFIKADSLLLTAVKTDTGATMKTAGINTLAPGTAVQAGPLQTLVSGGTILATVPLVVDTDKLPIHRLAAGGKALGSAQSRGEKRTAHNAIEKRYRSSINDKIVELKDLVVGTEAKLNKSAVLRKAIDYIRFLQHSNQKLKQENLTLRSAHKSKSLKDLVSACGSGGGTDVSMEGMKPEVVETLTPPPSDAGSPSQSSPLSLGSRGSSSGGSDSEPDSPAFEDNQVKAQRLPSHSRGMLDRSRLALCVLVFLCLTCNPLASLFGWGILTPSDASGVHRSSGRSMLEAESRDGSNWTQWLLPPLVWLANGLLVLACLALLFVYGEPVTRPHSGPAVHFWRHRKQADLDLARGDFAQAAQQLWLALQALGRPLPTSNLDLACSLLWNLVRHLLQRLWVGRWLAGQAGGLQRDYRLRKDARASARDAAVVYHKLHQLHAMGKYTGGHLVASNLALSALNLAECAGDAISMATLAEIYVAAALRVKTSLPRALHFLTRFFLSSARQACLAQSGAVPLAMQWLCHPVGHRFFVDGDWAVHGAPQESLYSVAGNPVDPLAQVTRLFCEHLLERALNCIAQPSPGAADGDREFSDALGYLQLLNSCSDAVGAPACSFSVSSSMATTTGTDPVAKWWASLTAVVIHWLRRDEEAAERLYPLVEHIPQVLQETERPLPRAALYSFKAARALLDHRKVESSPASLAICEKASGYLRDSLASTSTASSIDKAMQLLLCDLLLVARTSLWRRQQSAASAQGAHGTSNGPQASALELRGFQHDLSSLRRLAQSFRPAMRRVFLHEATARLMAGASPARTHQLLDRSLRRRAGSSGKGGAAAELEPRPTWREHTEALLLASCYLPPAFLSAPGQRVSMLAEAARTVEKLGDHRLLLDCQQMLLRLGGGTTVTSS", "experiment": "cell_activity; pGL3gamma3p800 luciferase reporter, Hep G2", "details": "tags: expression vector, Hep G2 cells", "excerpt": "To assess whether ADD-1 regulates the expression of the hPPARγ3 mRNA, we cotransfected either an expression plasmid coding for ADD-1 together with the pGL3γ3p800 luciferase reporter vector."}}}
{"molecule": "CN(CCOc1ccc(CC2SC(=O)NC2=O)cc1)c1ccccn1", "note": "(centres unmarked) [BRL 49,653]", "values": [{"measurement": "J3-TK-LUC reporter activation under cholesterol depletion versus supplemented medium", "setting": "PPARγ; cholesterol-depleted medium", "value": "activated to a significantly higher level"}, {"measurement": "promoter activity of J3-TK-LUC reporter", "setting": "PPARγ; increasing amounts of ligand, cholesterol-depleted or supplemented medium", "value": "dose-dependent activation"}]}
{"molecule": "B1", "values": [{"measurement": "binding result", "setting": "[1]", "value": "binds"}]}
{"molecule": "B2", "values": [{"measurement": "expression of PPARγ mRNA", "setting": "PPARγ mRNA", "value": "significantly more active"}]}
{"molecule": "B3", "values": [{"measurement": "activity", "setting": "ADD-1", "value": "≥ 4", "unit": "fold"}]}
